Results reported in article doi:10.1101/2024.05.06.590709 (bioRxiv, 2024).

Tests used:
mass photometry = molecular target: the molecule itself; test: mass photometry
SEC-MALS = molecular target: the molecule itself; test: SEC-MALS

B1: NIT1 WT (purified recombinant AtNIT1) (enzyme)
chain: MSSTKDMSTVQNATPFNGVAPSTTVRVTIVQSSTVYNDTPATIDKAEKYIVEAASKGAELVLFPEGFIGGYPRGFRFGLAVGVHNEEGRDEFRKYHASAIHVPGPEVARLADVARKNHVYLVMGAIEKEGYTLYCTVLFFSPQGQFLGKHRKLMPTSLERCIWGQGDGSTIPVYDTPIGKLGAAICWENRMPLYRTALYAKGIELYCAPTADGSKEWQSSMLHIAIEGGCFVLSACQFCQRKHFPDHPDYLFTDWYDDKEHDSIVSQGGSVIISPLGQVLAGPNFESEGLVTADIDLGDIARAKLYFDSVGHYSRPDVLHLTVNEHPRKSVTFVTKVEKAEDDSNK
modifications: RED-NHS 2nd Generation dye (in the MST only)
stoichiometry N (mass photometry): ≤ 10
stoichiometry N (SEC-MALS): 20
